Assay results: patent US20160340418A1 (US Dept. of Health and Human Services, published 2016)
One block for each binder: values may come before it.

What was measured:
[1] = target: T1, recombinant human matrilin-3 protein (human, UniProt O15232 29-486); assay: ELISA, coated recombinant matrilin-3, purified scFv-Fc titrated 230 nM to 0.014 nM, HRP anti-Fc
T1 construct: Bought from R&D Systems; It was biotinylated through an Avi tag for the library selection; also called human recombinant matrilin-3
T1 sequence: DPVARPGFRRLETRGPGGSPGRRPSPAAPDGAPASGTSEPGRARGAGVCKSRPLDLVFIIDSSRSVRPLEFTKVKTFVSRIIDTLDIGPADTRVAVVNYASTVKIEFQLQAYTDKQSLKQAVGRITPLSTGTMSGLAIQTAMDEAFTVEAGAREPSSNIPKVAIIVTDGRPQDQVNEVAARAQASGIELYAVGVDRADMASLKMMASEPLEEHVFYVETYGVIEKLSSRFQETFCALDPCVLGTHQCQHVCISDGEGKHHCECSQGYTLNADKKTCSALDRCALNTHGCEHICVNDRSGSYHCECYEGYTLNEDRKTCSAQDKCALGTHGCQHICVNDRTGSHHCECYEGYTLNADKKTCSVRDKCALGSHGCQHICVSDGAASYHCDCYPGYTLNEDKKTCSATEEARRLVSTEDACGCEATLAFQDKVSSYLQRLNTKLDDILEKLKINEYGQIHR

[2] = target: T2, recombinant mouse matrilin-3 protein (mouse, UniProt O35701 28-481, limits assumed); assay: as above
T2 construct: also called mouse recombinant matrilin-3; His-Tagged recombinant mouse matrilin-3
T2 sequence (looked up): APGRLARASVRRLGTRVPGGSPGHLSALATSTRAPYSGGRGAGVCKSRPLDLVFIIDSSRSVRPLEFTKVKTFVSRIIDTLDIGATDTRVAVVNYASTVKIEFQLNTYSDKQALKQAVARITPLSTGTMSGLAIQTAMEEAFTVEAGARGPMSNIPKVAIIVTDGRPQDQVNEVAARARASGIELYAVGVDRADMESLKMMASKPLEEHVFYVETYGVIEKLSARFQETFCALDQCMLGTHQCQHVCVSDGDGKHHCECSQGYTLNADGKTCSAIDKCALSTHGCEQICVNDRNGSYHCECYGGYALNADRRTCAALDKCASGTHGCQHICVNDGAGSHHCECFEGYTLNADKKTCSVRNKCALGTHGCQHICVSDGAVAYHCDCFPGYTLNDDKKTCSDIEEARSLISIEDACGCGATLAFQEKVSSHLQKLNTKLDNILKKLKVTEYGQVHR

- EC50 [1]: < 1 nM
- EC50 [2]: < 1 nM
B1: matrilin-3-binding antibody fragment 22 (clone 22 scFv fused with human IgG1 Fc fragment) (Fc fusion)
scFv: LQQSGPGLVKPSQTLSLTCAISGDSVSSNSAAWNWIRQSPSRGLEWLGRTYYGSKWYNDYAPSVKSRISINPDTSKNQFSLQLNSVTPEDTAVYYCTRGIWNAFDIWGQGTMVTVSSGGGGSGGGASGGGGSSSELTQDPAVSVALGQTVRITCQGDSLRSYYASWYQQKPGQAPLLVIYDRDNRPSGIPDRFSGSSSGNTASLTITGAQAEDEADYYCQSYDTSLSWVFGGGTQLTVL
notes: Tested as scFv-Fc; not shown: human IgG1 Fc fragment encoded by the modified pSecTagB vector; Avi tag downstream of the Fc in the vector

- EC50 [1]: < 1 nM
- EC50 [2]: < 1 nM
B2: matrilin-3-binding antibody fragment 13 (clone 13 scFv fused with human IgG1 Fc fragment) (Fc fusion)
scFv: LVQSGAEVKKPGASVKVSCKASGGTFSSYAISWVRQAPGQGLEWMGGIIPIFGTANYAQKFQGRVTITADKSTSTAYMELSSLRSEDTAVYYCARGQGYWFDPWGQGTLVTVSSGGGGSGGGASSGGGSDVQLTQSPSSLSASVGDRVTITCQASQDISNYLNWYQQKPGKAPKLLIYDASNLETGVPSRFSGSGSGTDFTFTISSLQPEDIATYYCQQYDNLPLTFGGGTKLEIK
notes: Tested as scFv-Fc (culture supernatant or protein A purified); not shown: human IgG1 Fc fragment encoded by the modified pSecTagB vector; Avi tag downstream of the Fc in the vector
